Reference: article PMC4287573

Biological target: HA-tagged HNRNPK (heterogeneous nuclear ribonucleoprotein K), wild type (human) (UniProt P61978)
Test: co-IP; anti-HA agarose beads on lysates of Huh7.5 cells stably expressing HA-tagged HNRNPK or its deletion mutants, 48 h after electroporation with a subgenomic JFH1 replicon or genomic HCV RNA; lysis buffer 20 mM Tris-HCl pH 7.5, 0.5% Nonidet P-40, 1 mM sodium deoxycholate, 100 mM NaCl; 3 h at 4°C; elution with HA peptide; immunoblot; cells with non-tagged HNRNPK as control

HCV core protein (natural protein)
percent of the intracellular HCV protein coprecipitated: 1%
